Data taken from US20040072319A1, “Molecules that modulate ubiquintin-dependent proteolysis and methods for identifying same” (priority 2003, published 2004).
Changes are numbered by the printed parent chain. Values belong to the molecule of their own block, whether it stands above or below them.

Legend:
[1] = biological target: T1, Cdc4 (Saccharomyces cerevisiae, UniProt P07834); assay: Capture of Cdc4 from baculovirus-infected insect cell lysates by biotinylated peptide; format: binding, yeast; details: insect cells infected with Cdc4 baculovirus
T1 construct: made in house; host or cells: Sf9 insect cells infected with recombinant baculovirus (crude lysate)
T1 sequence (P07834 whole entry, looked up): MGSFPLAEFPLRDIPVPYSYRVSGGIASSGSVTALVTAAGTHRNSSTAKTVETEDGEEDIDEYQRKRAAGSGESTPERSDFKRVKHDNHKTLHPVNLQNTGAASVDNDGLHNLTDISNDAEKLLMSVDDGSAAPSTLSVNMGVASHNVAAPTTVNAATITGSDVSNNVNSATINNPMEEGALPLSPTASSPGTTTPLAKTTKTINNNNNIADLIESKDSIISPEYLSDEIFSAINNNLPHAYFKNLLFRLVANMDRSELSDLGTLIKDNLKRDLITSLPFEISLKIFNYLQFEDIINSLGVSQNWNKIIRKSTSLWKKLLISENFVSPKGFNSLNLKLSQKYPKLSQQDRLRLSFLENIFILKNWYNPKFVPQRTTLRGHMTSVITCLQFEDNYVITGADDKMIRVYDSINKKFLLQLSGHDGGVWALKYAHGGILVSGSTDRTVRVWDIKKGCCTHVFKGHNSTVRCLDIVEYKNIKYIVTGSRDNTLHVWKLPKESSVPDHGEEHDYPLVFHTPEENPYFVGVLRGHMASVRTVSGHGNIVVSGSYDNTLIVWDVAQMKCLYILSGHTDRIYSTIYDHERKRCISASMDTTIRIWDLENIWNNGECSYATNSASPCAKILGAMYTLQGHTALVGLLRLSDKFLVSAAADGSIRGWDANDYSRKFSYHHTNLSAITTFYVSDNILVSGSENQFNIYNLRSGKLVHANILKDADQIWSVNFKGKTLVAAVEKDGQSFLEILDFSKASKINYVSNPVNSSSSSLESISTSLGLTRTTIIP
Excerpt: SCF complexes were purified from SF9 cells infected with recombinant baculoviruses and used in binding assays and ubiquitination reactions essentially as described (7). Gst-Skp1 expressed in BL21 codon plus cells (Stratagene) then purified on glutathione resin was used to capture full Cdc4 from insect cell lysates. Truncated forms of Cdc4 were enriched prior to Gst-Skp1 capture by affinity purification of hexahistidine fusion proteins on a metal chelate column. The Skp1-Cdc4 complexes were released from the Gst moiety by cleavage with TEV protease and further purified by size exclusion chromatography on a Superdex S75 or S200 column. Biotin labeled […]p[…] (SEQ ID NO. 1), […] (SEQ ID NO. 12), and APPLSQEpTFSDLWK (SEQ ID NO. 13) were synthesized by addition of d-biotin (Sigma) with an Fmoc-e-aminocaproic acid (Bachem) spacer to carboxy-terminal peptides. […] Streptavidin-agarose beads (Sigma) were incubated in the presence of biotinylated peptide for 90 min. at 4° C. Beads were washed 3 times and then incubated with lysates from Cdc4 expressing baculovirus infected Sf9 cells. Beads were washed 4 times, after which SDS-PAGE gel loading buffer was added and the beads were boiled for 5 min. Proteins were separated by SDS-PAGE and visualized by silver stain. […]

[2] = biological target: T2, Cdc4 (yeast F-box protein, recombinant, expressed in baculovirus-infected insect cells) (yeast, UniProt P07834 1-779); assay: capture of Gst-Sic1 on Cdc4^FLAG resin, anti-Sic1 blot
T2 construct: also called Cdc4^FLAG
T2 sequence (looked up): T1 sequence (P07834 whole entry, looked up)

Molecule: ASPLPSGLLTPPQSGKKQS [unphosphorylated peptide, biotin labeled unphosphorylated cyclin E1 19 residue control peptide, reference compound]
capture of Cdc4 from lysates by biotinylated peptide ([1]; listed as non-phosphorylated CycE^19-pT380 peptide): does not
capture of Cdc4 from lysates by biotinylated peptide ([1]; listed as unphosphorylated version of the peptide): failed to interact with cdc4

binding result [2]: no binding
B1: Sic1 6m (Sic1^9m with T33, T45 and S76 restored), Gst fusion (other, yeast, UniProt P38634 1-284, looked up)
chain: MAPSAPPRSRGTRYLAQPSGNTSSSALMQGQKTPQKPSQNLVPVTPSTTKSFKNAPLLAPPNSNMGMTAPFNGLTSPQRAPFPKSSVKRTLFQFESHDNGTVREEQEPLGRVNRILFPTQQNVDIDAAEEEEEGEVLLPPSRPTSARQLHLSLERDEFDQTHRKKIIKDVPGAPSDKVITFELAKNWNNNVPKNDARSQESEDEEDIIINPVRVGKNPFASDELVTQEIRNERKRAMLRENPDIEDVITYVNKKGEVVEKRRLTDEEKRRFKPKALFQSRDQEH
modifications: treated with Cln2-Cdc28 kinase
notes: not shown: glutathione S-transferase (Gst) fusion moiety of pGEX-3x

binding result [2]: no binding
B2: Sic1 7m (Sic1^9m with T45 and S76 restored), Gst fusion (other, yeast, UniProt P38634 1-284, looked up)
chain: B1 chain with T33A
modifications: treated with Cln2-Cdc28 kinase
notes: as for B1
